According to paper PMC12158487, “Tracing the aggregation pathway of the scaffold protein DISC1: Structural implications for chronic mental illnesses” (Journal of Structural Biology: X, 2025):
Ends that are not written are not given here.

Key:
[1] = molecular target: DISC1 C-region L807-frameshift, His6 fusion (human) (UniProt Q9NRI5); experiment: ITC; 10 µM His-tagged protein alone in the 200 µL cell, 20 °C, stirred at 300 rpm; heat flow of self-association followed in real time, peak area integrated
[2] = molecular target: T1, DISC1 C-region (WT), His6 fusion (human), Q9NRI5; experiment: ITC; 10 µM His-tagged WT-C-region alone in the cell, 30 °C; heat flow of self-association followed in real time, peak area integrated; conditions: remark: other sources report otherwise
T1 chain: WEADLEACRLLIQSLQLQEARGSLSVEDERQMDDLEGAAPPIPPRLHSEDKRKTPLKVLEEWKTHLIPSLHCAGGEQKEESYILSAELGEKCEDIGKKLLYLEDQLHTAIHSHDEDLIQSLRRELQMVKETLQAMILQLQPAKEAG

[3] = molecular target: T1, DISC1 C-region (WT), His6 fusion …; experiment: dynamic light scattering; 10 µM protein, 20 °C, 500 µL sample, centrifuged at 21,000 x g before measurement; apparent hydrodynamic radii followed over time; conditions: remark: other sources report otherwise
[4] = molecular target: T1, DISC1 C-region (WT), His6 fusion …; experiment: ITC; 10 µM His-tagged protein alone in the 200 µL cell, 20 °C, stirred at 300 rpm; heat flow of self-association followed in real time, peak area integrated; conditions: remark: other sources report otherwise
[5] = molecular target: the molecule itself; experiment: as above
[6] = molecular target: the molecule itself; experiment: ITC; one-week-old sample of S704C, 10 µM protein alone in the cell, 20 °C; heat flow of self-association followed in real time, peak area integrated

In the case of “DISC1 C-region L807-frameshift, His6 fusion (from UniProt Q9NRI5 691-807) (domain or fragment)”, the dH [1] is reported as -1060 kcal/mol.

B1: DISC1 C-region (WT), His6 fusion, Q9NRI5 691-836 (domain or fragment)
chain: WEADLEACRLLIQSLQLQEARGSLSVEDERQMDDLEGAAPPIPPRLHSEDKRKTPLKVLEEWKTHLIPSLHCAGGEQKEESYILSAELGEKCEDIGKKLLYLEDQLHTAIHSHDEDLIQSLRRELQMVKETLQAMILQLQPAKEAG
Work on B1 yielded a dH [2] of -264 kcal/mol, a stoichiometry N [3] of 4 and a dH [4] of -547 kcal/mol.

B2: DISC1 C-region S713E, His6 fusion (domain or fragment, human, UniProt Q9NRI5 691-836, looked up)
chain: WEADLEACRLLIQSLQLQEARGELSVEDERQMDDLEGAAPPIPPRLHSEDKRKTPLKVLEEWKTHLIPSLHCAGGEQKEESYILSAELGEKCEDIGKKLLYLEDQLHTAIHSHDEDLIQSLRRELQMVKETLQAMILQLQPAKEAG
notes: Disrupted in schizophrenia 1 (DISC1), human, C-region, res; 691-836, numbered in the context of the full-length protein, with S713E; in the cited work it may be a phosphomimetic made by people (surmise); also called S713E C-region variant; source: E. coli BL21 (DE3) pLysE T1R, purified (Co2+-NTA)
B2 gave a dH [5] of -512 kcal/mol.

B3: DISC1 C-region S704C, His6 fusion (domain or fragment, human, UniProt Q9NRI5 691-836, looked up)
chain: WEADLEACRLLIQCLQLQEARGSLSVEDERQMDDLEGAAPPIPPRLHSEDKRKTPLKVLEEWKTHLIPSLHCAGGEQKEESYILSAELGEKCEDIGKKLLYLEDQLHTAIHSHDEDLIQSLRRELQMVKETLQAMILQLQPAKEAG
notes: Disrupted in schizophrenia 1 (DISC1), human, C-region, res; 691-836, numbered in the context of the full-length protein, with S704C; also called S704C C-region; source: E. coli BL21 (DE3) pLysE T1R, purified (Co2+-NTA)
Molecule B3 has a dH [5] of -240 kcal/mol and a dH [6] of -869 kcal/mol.

B4: DISC1 β-core (717-761), His6 fusion (domain or fragment, human, UniProt Q9NRI5 717-761, looked up)
chain: EDERQMDDLEGAAPPIPPRLHSEDKRKTPLKVLEEWKTHLIPSLH
modifications: also: His6 fusion, end not given here
notes: 717-761, numbered in the context of the full-length protein; also called β-core peptide; source: E. coli BL21 (DE3) pLysE T1R, purified (Co2+-NTA)
B4 was tested, and the dH [5] was -843 kcal/mol.
